Experimental data as given in paper doi:10.1101/2020.05.01.070730 (bioRxiv, 2020).
Numbering of substitutions follows the chain as printed. Where two headings read alike, the source gives them in different places.

B1: GT-pDNA (GT 8 nt from 3'-OH) (dsDNA)
DNA 1: ATGTGAATCAGTATGGTTGCTATCTGC
DNA 2: ATTTCCTTCAGCAGATAGTAACCATACTGATTCACAT
B2: dsDNA (dsDNA)
DNA 1: ATGTGAATCAGTATGGTTACTATCTGCTGAAGGAAAT
DNA 2: B1 DNA 2

Experiments:
[1] = target: T1, MutS R842E (Pseudomonas aeruginosa, UniProt Q9HY08 1-855, R842E); assay: native PAGE shift
T1 sequence: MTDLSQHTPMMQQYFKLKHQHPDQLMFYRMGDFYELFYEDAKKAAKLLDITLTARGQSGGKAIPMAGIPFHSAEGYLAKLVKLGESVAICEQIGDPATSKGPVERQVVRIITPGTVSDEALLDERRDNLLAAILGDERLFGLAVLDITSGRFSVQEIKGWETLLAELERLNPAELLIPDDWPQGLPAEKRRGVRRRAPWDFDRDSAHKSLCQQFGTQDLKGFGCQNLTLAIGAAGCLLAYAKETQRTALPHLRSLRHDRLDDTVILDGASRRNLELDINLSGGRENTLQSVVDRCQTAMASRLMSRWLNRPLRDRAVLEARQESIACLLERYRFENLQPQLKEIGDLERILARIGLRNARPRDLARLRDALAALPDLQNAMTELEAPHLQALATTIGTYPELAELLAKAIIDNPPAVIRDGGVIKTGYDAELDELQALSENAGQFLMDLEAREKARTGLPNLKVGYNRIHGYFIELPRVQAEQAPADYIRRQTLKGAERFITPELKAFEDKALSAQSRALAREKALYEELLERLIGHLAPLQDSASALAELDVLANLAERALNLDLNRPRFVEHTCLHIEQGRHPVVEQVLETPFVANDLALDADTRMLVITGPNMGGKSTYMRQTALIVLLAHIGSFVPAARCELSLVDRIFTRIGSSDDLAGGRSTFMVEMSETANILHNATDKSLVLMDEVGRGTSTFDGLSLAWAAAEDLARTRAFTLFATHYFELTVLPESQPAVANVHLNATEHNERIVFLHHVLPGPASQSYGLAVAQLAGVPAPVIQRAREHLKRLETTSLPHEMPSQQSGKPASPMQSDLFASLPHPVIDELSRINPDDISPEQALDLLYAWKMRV

[2] = target: T2, MutS (Pseudomonas aeruginosa, UniProt Q9HY08 1-855); assay: SPR
T2 sequence: T1 sequence with E842R

[3] = target: T2, MutS; assay: SPR; remark: listed apart in the source

Binder | binding result [1] | Kd [2] [nM] | Kd [3] [nM]
B1 | binds | 53.3 ± 3.7 | –
B2 | – | – | 1960
